Measurements taken from patent US7645583B2, “Identification of compounds for inhibiting complexation of C-reactive protein with fibronectin” (Kimberly-Clark Worldwide, Inc., priority 2005, dated 2010).

Molecular target: CRP/Fn binding (CRP captured on immobilized CRP antibody, Fn injected) (Homo sapiens, UniProt P02741+P02751)
Experiment: SPR (Biacore X) in vitro model of the inhibitory effect of test compounds on CRP/Fn binding
Set-up: 10 μL of CRP antigen 6 (50 μg/mL) was injected in flow channel 2
Conditions: for inhibitory effect on CRP/Fn binding (in words): at the conditions of Table 3; for SPR Response (RU): control without inhibitor 118 RU
Protocol: An in vitro model was designed to determine inhibitory effect of several different test compounds on CRP/Fn binding. Surface plasmon resonance (SPR) measurements were performed using a Biacore® X system and amine coupling kit for immobilization. […] All experiments were performed at 25° C., unless otherwise specified. The SPR technology used is based on optical phenomena in which the measured response depends on a change in refractive index in the close vicinity of the sensor chip surface. The response in such systems is proportional to the mass of analyte bound to the surface. The SPR method was used to monitor continuous analysis over the course of the interaction. […] (catalog number A58110228P), which specifically binds to calcium/phosphocholine site of CRP, was immobilized on a surface of a sensor chip 23 (CM5, carboxyl functionalized) via amine coupling chemistry as is generally known in the art. Following immobilization of the antibody to the surface of the chip 23, 10 μL of CRP antigen 6 (50 μg/mL) was injected in flow channel 2. Following this injection, 60 μL of an Fn solution 8 was injected into both flow channel 1 and flow channel 2 for two minutes duration (association phase), followed by 2 minutes delay time (dissociation phase). […] The process was repeated with an Fn solution including no inhibitor material as a control as well as several Fn solutions including various inhibitor compounds as herein described. Fn concentration was 1 mg/mL in all solutions.

[1] = inhibitor 50 μM, Fn 1 mg/mL, 25° C.
[2] = inhibitor 50 μM, Fn 1 mg/mL, 25° C., relative to control without inhibitor

CRP/Fn binding (CRP captured on immobilized CRP antibody, Fn injected), sequence (P02741 19-224): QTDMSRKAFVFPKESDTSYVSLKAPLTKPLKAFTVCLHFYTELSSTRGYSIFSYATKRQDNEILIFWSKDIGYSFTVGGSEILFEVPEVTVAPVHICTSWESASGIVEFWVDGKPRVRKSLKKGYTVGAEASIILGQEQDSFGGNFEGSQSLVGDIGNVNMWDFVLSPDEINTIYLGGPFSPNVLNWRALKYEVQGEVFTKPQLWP
CRP/Fn binding (CRP captured on immobilized CRP antibody, Fn injected), sequence (P02751 32-2477): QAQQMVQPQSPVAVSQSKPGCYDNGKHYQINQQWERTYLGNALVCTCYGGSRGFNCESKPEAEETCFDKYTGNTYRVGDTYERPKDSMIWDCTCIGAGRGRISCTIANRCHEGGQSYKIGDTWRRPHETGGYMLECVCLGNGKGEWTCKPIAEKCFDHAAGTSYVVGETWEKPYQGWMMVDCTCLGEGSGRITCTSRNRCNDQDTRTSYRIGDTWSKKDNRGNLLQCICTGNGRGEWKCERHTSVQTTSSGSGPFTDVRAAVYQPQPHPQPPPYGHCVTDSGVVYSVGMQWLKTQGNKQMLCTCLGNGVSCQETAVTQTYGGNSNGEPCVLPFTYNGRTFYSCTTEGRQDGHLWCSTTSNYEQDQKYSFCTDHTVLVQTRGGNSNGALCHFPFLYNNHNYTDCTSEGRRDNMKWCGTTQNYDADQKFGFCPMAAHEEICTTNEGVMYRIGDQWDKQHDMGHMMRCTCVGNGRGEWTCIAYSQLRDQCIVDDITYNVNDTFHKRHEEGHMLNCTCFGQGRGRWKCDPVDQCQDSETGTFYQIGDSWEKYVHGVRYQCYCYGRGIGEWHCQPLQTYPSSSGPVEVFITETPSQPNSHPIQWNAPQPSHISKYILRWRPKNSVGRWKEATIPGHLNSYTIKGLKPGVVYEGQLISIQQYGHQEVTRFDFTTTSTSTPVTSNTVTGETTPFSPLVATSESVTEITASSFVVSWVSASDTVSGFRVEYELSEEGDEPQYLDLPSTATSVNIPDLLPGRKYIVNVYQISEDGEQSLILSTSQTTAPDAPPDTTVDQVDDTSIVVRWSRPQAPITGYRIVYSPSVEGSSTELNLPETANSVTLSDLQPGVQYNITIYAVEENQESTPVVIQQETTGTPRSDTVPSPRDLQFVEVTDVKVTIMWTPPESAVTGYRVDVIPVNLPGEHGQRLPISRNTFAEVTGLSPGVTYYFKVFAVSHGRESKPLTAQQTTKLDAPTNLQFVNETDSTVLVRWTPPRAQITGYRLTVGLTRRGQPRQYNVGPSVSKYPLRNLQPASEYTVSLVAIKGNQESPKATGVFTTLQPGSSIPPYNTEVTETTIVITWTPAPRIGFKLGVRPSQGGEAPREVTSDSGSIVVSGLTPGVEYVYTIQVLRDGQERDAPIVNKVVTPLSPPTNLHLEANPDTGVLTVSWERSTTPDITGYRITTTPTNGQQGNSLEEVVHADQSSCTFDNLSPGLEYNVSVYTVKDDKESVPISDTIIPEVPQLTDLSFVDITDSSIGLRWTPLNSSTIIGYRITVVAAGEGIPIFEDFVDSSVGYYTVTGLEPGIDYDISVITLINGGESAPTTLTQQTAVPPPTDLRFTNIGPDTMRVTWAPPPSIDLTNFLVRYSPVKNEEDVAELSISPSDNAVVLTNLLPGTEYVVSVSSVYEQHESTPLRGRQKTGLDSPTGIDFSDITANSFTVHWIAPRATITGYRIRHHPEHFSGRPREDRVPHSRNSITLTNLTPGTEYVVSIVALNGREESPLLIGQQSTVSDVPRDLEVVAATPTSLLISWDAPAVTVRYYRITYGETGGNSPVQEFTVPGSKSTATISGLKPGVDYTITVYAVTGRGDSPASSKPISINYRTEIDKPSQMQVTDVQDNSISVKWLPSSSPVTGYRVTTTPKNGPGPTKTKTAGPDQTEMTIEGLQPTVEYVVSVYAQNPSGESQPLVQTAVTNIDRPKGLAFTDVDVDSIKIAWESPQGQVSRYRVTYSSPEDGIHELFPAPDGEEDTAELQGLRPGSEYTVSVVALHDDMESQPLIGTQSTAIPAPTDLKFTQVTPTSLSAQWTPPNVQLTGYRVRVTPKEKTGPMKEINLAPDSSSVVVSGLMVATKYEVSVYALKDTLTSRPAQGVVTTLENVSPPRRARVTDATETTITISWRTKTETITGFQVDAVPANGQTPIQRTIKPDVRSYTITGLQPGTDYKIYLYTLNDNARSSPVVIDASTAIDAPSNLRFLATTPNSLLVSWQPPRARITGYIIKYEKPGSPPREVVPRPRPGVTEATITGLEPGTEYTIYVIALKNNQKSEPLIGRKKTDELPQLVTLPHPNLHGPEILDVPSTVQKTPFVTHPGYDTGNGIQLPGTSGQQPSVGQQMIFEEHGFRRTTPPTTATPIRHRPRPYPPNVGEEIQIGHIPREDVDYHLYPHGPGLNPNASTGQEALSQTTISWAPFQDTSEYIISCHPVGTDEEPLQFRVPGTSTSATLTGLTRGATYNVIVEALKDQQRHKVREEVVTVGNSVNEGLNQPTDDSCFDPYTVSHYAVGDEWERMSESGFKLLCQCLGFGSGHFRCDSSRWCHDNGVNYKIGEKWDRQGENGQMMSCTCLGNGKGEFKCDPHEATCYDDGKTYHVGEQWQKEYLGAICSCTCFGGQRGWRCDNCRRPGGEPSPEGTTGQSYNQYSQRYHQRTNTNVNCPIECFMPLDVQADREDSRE

SPR Response (RU) (inhibitor 200 μM, Fn 1 mg/mL, 25° C.) | inhibition at 200 µM (inhibitor 200 μM, Fn 1 mg/mL, 25° C., relative to control without inhibitor) [%] | SPR Response (RU) (inhibitor 40 μM, Fn 1 mg/mL, 25° C.) | % Inhibition (inhibitor 40 μM, Fn 1 mg/mL, 25° C., relative to control without inhibitor) [%] | Compound | inhibitory effect on CRP/Fn binding (in words) | SPR Response (RU) [1] [RU] | % Inhibition [2] [%]
 |  |  |  | 9-mer: 9 mer segment of SEQ ID NO.:11, specifically the first nine amino acids of SEQ ID NO.:11 (PRCGNPDVA; listed as Homo sapiens) | no significant effect | 119 | 0.0
 |  |  |  | 10-mer: 10-mer polypeptide of SEQ ID NO.:12, exemplary inhibitor of CRP/Fn complexation (NYNFFPRKPK; listed as Homo sapiens) | somewhat less inhibitory effect | 76 | 35.6
90 | 23.7 |  |  | C=C1C[C@]23C[C@@]1(O)CC[C@H]2[C@@]12C=C[C@H](O)[C@@](C)(C(=O)O1)[C@H]2[C@@H]3C(=O)O [Gibberellic acid, gibberellic acid] | somewhat less inhibitory effect |  | 
 |  | 94 | 20.4 | CC/C=C\C[C@H]1C(=O)CC[C@@H]1CC(=O)O [Jasmonic acid, jasmonic acid] | somewhat less inhibitory effect |  | 
